Patent US20140287419A1, “Compositions Having Dicamba Decarboxylase Activity and Methods of Use” (priority 2013, published 2014)

Experiment: 14C assay with IPTG-induced recombinant E. coli cells (14CO2 capture from [14C]-carboxyl-labeled dicamba)
Details: for Dicamba Decarboxylase Activity: IPTG-induced recombinant E. coli cells, [14C]-carboxyl-labeled dicamba, 14CO2 capture; for Enzymatic Detection level: dicamba decarboxylation activity of the protein of the given SEQ ID NO

Molecule | Dicamba Decarboxylase Activity | Enzymatic Detection level
54 (protein, listed as Streptomyces sp.) MAKIIALEEHFSDPAVAKAGAARAQALSPGFAASYSPASGLPYSPSPEVLENLAEKRLADMDAGGITMQVLSGLGAQTVPADVAPALVAGSNDKAAAAVRAHPDRFAAFAALPTAAPEAAVAELDRSINELGFVGTLIMGRTEGEFLDAPRFEPILARAAALKVPVFLHPGVPPREITDSNYAAGLPTGIGTRLQTAAWGWHQETAVHFLHLVHSGVLDRYPGLQFILGHWGEMIPFYLDRVDEALPQRATGLDRSFHEYFRENVYLAPSGMWSQAQLRFCLETVPLERIVFAVDYPFIGNEGAVPFLEKAELPEADKRKIAHENAERLLGL | High | High
59 (protein, alpha proteobacterium) MAPSVIDAHAHFLPGSLVTALRSRSDAPDIRTDSNGGESFGIYRTRMPYGRTYDALDVRLARMDELGVDRQILSLPGLFGIDSRPVSQALPLVRAFNDGVADLVRKHPDRFSGIAALPLADLDAAQEEYRRARGDLGLSGLILPGDTFVSVAAAERVRPLFELAATIGGLIFVHPGPLPDETGSAVDAPAPHTDSVVHRRVTVDIQNRMTEVMVTLALTDFLAPYPSVPVQVANLGGSLPFVIERMDHVYALRNPEAPPPSLSLRSLYVDAASLGPRAIALAAEVYGADRVLFGSDYPIFDDGRCLDAVRQTRLSPDARALIAGGNAARMLTQT | No | No
61 (protein, listed as Gordonia amarae) MATGAGSGVPSPADRVIVRSPGVIDVHAHAVLPMSLGCAGAAGPEIGYREDGSPFFRVGEYVLNGVRYEGSAFMDPEVRVAAMDAAGIGLQMISPNPITYFTRLDARSATDYARAHNDAIAEAAGRHPGRLVGAAQLPMQDVPAAIAELERSVRELGLVAAYIDTDIGDRTLDAPELDDFYSAAVELDVPVFIHPSPVGQEGPPDDTRLRRFDLDLLLGFSYDETLAVAALVFGGVLERHPALDVCLSHGGGTLAFVAGRFARAVAKPRAWVPEFLVENGIESYLRRLWLDTHVHSAGSLRLLIDTVGTDRLVFGTNFAGWDADGATEVDALGDLRETTTANAAHLLRLGRA | No | No
4 (protein, listed as Lactobacillus buchneri) MAKVITLEEHFSSQKLGQKMAEVLPKRPIGNVSPKMQDYMQRSLPPEAELEDVTGSRIQWMDQHQISMQILSYGNQNPQNSDPKFAVELTKLANDELAKAVAKAPDRFRAFASLPVSHPTDAAAELKRGVEELGFKGAMLVRPTSQAHPFFDDPFYLPIFEAAANLNVPVYLHPSFPDSQIIDYYYSNGPWDDKVSGILGTAGYGWHTDVGIQTVRLLLSGVFEKYPNLKLISGHWGEFASFALERMDQVMYPETNLSEPISKIYRDHVYVTPSGILTEPQLKFVKDEVGIEHLLYSIDYPYIKPENSGSFIESSPLTDEEKELFAHGNAEKLLQL | High | High
55 (protein, listed as Serratia sp.) MAKIICLEEHTLDKALVMASMPAALEQAPFLSDWGKTVTDGNLPDRSRPQIEKNDLINIKGADIGRGRLDDMDVAGITMQVLSVGGFPHLISAAEGVDLNRAANDRLADAVNAHPDRFAAFATLPWAQPDSAEKELERAVKELGFKGALLNGRPSTHFLDHPDYDGLLARFNALGVPLYLHPGLPVRSVQQAYYGGFSDEVTARLSMFGWGWHHEAGIHLLRLILSGAFDKYPNLQVISGHWGEMLPFWLQRLDDSLPQAATGLRRTIAQTFKEQVYVTPSGMLTLPHFQFIYALLGAERIIFSVDYPYQTLDGVKAFIQSLPVPEEAKEAIAFRNAERLLGLTS | High | High
60 (protein, listed as Catenulispora acidiphila) MARGFVRTAVVPGFWDAGWRGAGQPGGMRVDVHAHLFPAAYLDLLDDFRQDGGVGTREVRALGGGDGERELRLRLAAMDAVGVDVQLLSTCPQGPYTGDPTAAVEAARCANVALAQTVAQYPERLRALAALPLPHILASVDELNRAMEQDGMLGAAVGTSILGRPLSHPDFEPLFAALNRRKGVLFVHPIGESAGSPLMQASKLDRVIGYAAEVSTAILQLFQAGLTVKYPDIRIIAPHMGGYLPFLIQRLDRHRDWYLPKDAPSAGQLMRGIAYDTANPLPAALRLTAEVVGPERLLLGTDYPFEQGPSLRDHIEYILAAGLPEAQAKMIVDVNAADFLDMRSGAEQPPV | No | No
57 (protein, Collimonas fungivorans) MAKLICVEEHVLDPAVGAATQSLVRAEAPYLPDWGSRVLDGRHVADRSRPHVIAPSESARKALEMGEPRLADMDAASIDMQVLSYGGFPQLLPAAQAIDLNRAANDKLALAAQAHPARFAGFATLPWQAPEAAARELERAVKQLGLKGALINGRPGDTFLDDARYAPILAAFDELKVPLYVHPGLPLPAVQAPYYGGFERELSARLAMFAWGWHNEAGIQVVRMLLAGVFDRHPRLQLISGHWGEMVPFFLQRLEDSIPQEASGLQRPIVQTYREHVYISPSGMFTLPHFQFIHALMGAQRILYSIDYPYQSLDGARAFIERLPISDTDKALIAHRNAERLLHL | High | High
56 (protein, Enterobacter aerogenes) MAKIICLEEHYLDSELGRACMPVALEQAPFLGDWGKTVADGHNPDRSRPQIEKNALINAKGADLGSRRLRDMDEAGITLQILSVGGFPQLAPEDEAVTLNTAANDRLAEAVRNHPDRFAAFATLPWAQPKDAENELVRAVEKLGFKGALLNGRPSSCFLDHPDYDSLLSRFNKLNVPLYLHPGLPLKSVQQAYFTGFSAEVNARLSMFGWGWHHEAGIHLLRLMLSGAFDKYPNMQVISGHWGEMLPFWLQRLDDSLPLAATGLSRTLTRTFQEHVYVTPSGMLTLPHFKFIYELMGAERILFSVDYPYQTLDGVKTFIDSLPVNKAEKEAIAFRNAERLLGITA | High | High
62 (protein, Bacillus thuringiensis serovar pulsiensis) MAVGGKNFRDVTDQVWCPKKRIEDMDREGVDIQVLSPIPVTFSYWAKPEEAESMARIQNDFIAETVLAYPDRFVGLGTVPMQDGETAIREMERCITELNLHGIEIGTNVNGKNLDDPSFIEFFRMAEKWQVPIFIHPWETLGRDRMPHHNFMYTVGMPSETALAAATLIWSGIMEKFPRLKVCFAHGGGSFPYILPRLDQGWKVWPHLRLTTHPPSYYAKKFYFDSLNYDPINLKYMIERFGHEKIFMGSDYPFLLREVDPGKVIDETASLSEEQKAAMLGGNAAEFLNIDIKKRGVAYAESTNT | No | No
58 (protein, Mycobacterium colombiense) MARVIALEEHYATTEFLRGPGTWLASRPGIVEPAGDLGDGRIAAMDQAGVDLAVLSLAAPGVEQLDPDDAVRLARDCNDQLAAAVRRYPDRLAGFATVPTSAPDRAADELERAVRGLGFPGAVINGHSRGRYLDDPFFEPVLARAAELQAPIYLHPTIPPAGVIESSYAGFAEPVTFALATVGWGWHINTATHALRMILGGVFDRHPSLQMIIGHMGEATSFMLPRFDATLKPELTGLNHPVSSYLRENFHYTFANFNDHATYANLVAQVGIERVAFSADYPFGSMVDARAFLDGLPLSDDERAAISHRNAEKLLGL | High | High
